Assay [1] concerns the target hu-FCGRI (hu-CD64) (human) (UniProt P12314). Nature of the assay: SPR (ProteOn NLC chip), 25 C, pH 7.4.
For assay [2], the target named is hu-FCGRIIa (hu-CD32a) 131H (human) (UniProt P12318). The assay is described as follows: SPR (ProteOn NLC chip), 25 C, pH 7.4.
Assay [3] concerns the target hu-FCGRIIa (hu-CD32a) 131R (human) (UniProt P12318). The assay is described as follows: SPR (ProteOn NLC chip), 25 C, pH 7.4.
Assay [4] deals with hu-FCGRIIb (hu-CD32b) (human) (UniProt P31994). Nature of the assay: SPR (ProteOn NLC chip), 25 C, pH 7.4.
hu-FCGRIIb (hu-CD32b) (human), sequence (P31994 46-217): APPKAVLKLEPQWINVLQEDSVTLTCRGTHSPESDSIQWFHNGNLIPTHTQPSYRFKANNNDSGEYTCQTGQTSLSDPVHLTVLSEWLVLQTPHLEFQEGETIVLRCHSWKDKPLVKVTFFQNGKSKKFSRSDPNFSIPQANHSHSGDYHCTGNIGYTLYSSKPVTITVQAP
The target in assay [5] is Cynomolgus Monkey-FcRn (cynomolgus monkey) (UniProt Q8SPV9). Nature of the assay: SPR (ProteOn NLC chip), 25 C, pH 5.9, n = 3.
Cynomolgus Monkey-FcRn (cynomolgus monkey), sequence (Q8SPV9 24-297 limits assumed, form in doubt): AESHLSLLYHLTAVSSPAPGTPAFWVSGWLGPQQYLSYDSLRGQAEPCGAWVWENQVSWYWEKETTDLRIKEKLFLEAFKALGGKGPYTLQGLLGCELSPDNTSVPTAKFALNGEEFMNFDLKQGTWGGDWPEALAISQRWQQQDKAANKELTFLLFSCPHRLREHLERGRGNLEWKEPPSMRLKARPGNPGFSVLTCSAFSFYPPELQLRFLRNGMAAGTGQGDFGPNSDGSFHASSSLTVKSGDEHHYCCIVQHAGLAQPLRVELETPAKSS
Assay [6] deals with hu-FcRn (human neonatal Fc receptor) (human) (UniProt P55899). Nature of the assay: SPR (ProteOn NLC chip), 25 C, pH 5.9, n = 3.
hu-FcRn (human neonatal Fc receptor) (human), sequence (P55899 24-297 limits assumed, chain 1 of 2): as the sequence (Q8SPV9 24-297 limits assumed, form in doubt) above, with D39N, Q44E, S99G, G189S, N190S, M217L, T269S counted along it
hu-FcRn (human neonatal Fc receptor) (human), sequence (chain, as listed by the source limits assumed, chain 2 of 2): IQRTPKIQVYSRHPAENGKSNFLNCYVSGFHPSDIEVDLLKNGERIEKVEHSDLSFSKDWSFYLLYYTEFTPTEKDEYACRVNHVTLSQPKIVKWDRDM
Assay [7] deals with Cynomolgus Monkey-FCGRIIIa 42R (cynomolgus monkey) (UniProt Q8SPW2). Nature of the assay: SPR (ProteOn NLC chip), 25 C, pH 7.4, n = 3.
Cynomolgus Monkey-FCGRIIIa 42R (cynomolgus monkey), sequence (Q8SPW2 17-208 limits assumed): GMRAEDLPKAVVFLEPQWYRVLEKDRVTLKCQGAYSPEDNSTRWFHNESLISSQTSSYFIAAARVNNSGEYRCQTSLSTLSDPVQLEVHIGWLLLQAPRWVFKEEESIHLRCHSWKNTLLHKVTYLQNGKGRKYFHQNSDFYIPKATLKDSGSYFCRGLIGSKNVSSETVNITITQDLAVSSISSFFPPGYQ
Assay [8] addresses Cynomolgus Monkey-FCGRIIIa 42S (cynomolgus monkey). Nature of the assay: SPR (ProteOn NLC chip), 25 C, pH 7.4, n = 3.
The target in assay [9] is Cynomolgus Monkey-FCGRIIa (cynomolgus monkey). The assay is described as follows: SPR (ProteOn NLC chip), 25 C, pH 7.4, n = 3.
Assay [10] addresses hu-FCGRI (hu-CD64) (human) (UniProt P12314). Nature of the assay: SPR (ProteOn NLC chip), 25 C, pH 7.4, n = 4.
Assay [11] has as its target T1, human PD-1 (hPD-1) monomer (human, UniProt Q15116 25-167).
T1 construct: also called hu-PD-1; not shown: His tag (His-tagged monomer)
The assay is described as follows: SPR, human PD-1, 37 C. (SPR reads the build-up and loss of mass on a sensor chip optically.)

Assay [12] deals with T2, rat PD-1 on primary rat T cells (rat, UniProt D3ZIN8 25-287).
T2 sequence: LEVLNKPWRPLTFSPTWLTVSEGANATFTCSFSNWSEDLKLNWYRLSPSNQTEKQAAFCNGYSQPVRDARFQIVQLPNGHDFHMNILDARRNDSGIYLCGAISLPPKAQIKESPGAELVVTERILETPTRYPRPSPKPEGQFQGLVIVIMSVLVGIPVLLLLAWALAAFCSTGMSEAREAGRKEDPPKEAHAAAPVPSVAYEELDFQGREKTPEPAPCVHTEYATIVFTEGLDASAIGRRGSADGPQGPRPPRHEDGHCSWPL
The assay is described as follows: flow cytometry, activated rat T cells. A general note: In flow cytometry, cells or beads pass a laser one at a time.

Assay [13] addresses mouse-PD-L1 (positive control of Example 12) (mouse, UniProt Q9EP73 19-238, limits assumed). The assay is described as follows: SPR, 25 C.
Assay [14] concerns the target T3, mouse-PD-L2 (positive control of Example 12) (mouse, UniProt Q9WUL5 20-219, limits assumed).
T3 sequence (looked up): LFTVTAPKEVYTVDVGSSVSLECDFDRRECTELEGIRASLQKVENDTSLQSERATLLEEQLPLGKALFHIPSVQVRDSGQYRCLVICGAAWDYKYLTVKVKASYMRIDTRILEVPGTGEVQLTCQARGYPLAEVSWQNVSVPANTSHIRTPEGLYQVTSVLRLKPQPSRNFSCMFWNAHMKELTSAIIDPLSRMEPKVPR
The assay is described as follows: SPR, 25 C.

hu-FCGRI (hu-CD64) (human), sequence (P12314 16-288 limits assumed): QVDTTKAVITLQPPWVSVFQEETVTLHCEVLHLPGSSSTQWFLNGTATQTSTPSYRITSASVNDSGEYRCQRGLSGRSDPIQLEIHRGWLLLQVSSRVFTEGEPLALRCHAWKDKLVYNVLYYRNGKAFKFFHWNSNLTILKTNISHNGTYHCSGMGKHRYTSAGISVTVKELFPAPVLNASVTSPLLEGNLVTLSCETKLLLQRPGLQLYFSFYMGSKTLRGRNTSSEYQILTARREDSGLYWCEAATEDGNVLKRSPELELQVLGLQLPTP
hu-FCGRIIa (hu-CD32a) 131H (human), sequence (P12318 36-218): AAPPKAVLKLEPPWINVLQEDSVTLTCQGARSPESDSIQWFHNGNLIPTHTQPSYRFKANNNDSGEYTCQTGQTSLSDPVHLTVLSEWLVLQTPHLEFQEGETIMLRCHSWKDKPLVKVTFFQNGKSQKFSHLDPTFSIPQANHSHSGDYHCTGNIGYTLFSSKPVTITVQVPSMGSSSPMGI
T1 sequence (Q15116 25-167 limits assumed): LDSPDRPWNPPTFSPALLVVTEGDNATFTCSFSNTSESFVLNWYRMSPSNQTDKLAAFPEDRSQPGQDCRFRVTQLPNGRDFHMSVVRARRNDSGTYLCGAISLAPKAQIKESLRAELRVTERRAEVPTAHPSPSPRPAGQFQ
hu-FCGRIIa (hu-CD32a) 131R (human), sequence (P12318 36-218 H167R): as the sequence (P12318 36-218) above, with H132R counted along it

Regarding “Isotype-matched control, hu-IgG4 (antibody)”, the off-rate constant (koff) (commonly a measure of how fast the partners let go of each other) in assay [1] was 0.0018 s⁻¹. For the same molecule, the on-rate (kon) – broadly, the second-order rate constant of association – in assay [1] came to 1e+06 M⁻¹ s⁻¹. Further, the Kd (in general, a measure of binding affinity in units of concentration) in [2] was found to be 3900 nM; in assay [3], 400 nM; in assay [4], 700 nM; in assay [5], 570 nM; in [6] it was 820 nM; in assay [7] it was 3200 nM. In addition, the values for the Kd in [8], in assay [9] and in [10] were 1900 nM, 2600 nM and 0.177 nM, respectively.

B1: mAb4 (antibody, V domains shown)
VH: QVQLVQSGAEVKKPGASVKVSCKASGYTFTSYWINWVRQAPGQGLEWMGNIYPGSSLTNYNEKFKNRVTMTRDTSTSTVYMELSSLRSEDTAVYYCARLLTGTFAYWGQGTLVTVSS
VL: DIVMTQSPDSLAVSLGERATINCKSSQSLWDSTNQKNFLTWYQQKPGQPPKLLIYWTSTRESGVPDRFSGSGSGTDFTLTISSLQAEDVAVYYCQNDYFYPLTFGGGTKVEIK
notes: Variable regions only
B1: the dissociation constant Kd in assay [11] came out at 89 nM.

B2: Rat-PD-L1-Fc-Tag (Creative BioMart) (Fc fusion, not shown: a dimerising Fc or GST; small tags and cut ends)
chain: FTITAPKDLYVVEYGSNVTMECRFPVEQKLDLLALVVYWEKEDKEVIQFVEGEEDLKPQHSSFRGRAFLPKDQLLKGNAVLQITDVKLQDAGVYCCMISYGGADYKRITLKVNAPYRKINQRISMDPATSEHELMCQAEGYPEAEVIWTNSDHQSLSGETTVTTSQTEEKLLNVTSVLRVNATANDVFHCTFWRVHSGENHTAELIIPELPVPRLPHNRTH
On to B2, for which the binding result in assay [12] is “binds”.

B3: rat-PD-1 (recombinant purified, Example 12) (receptor)
chain: LEVLNKPWRPLTFSPTWLTVSEGANATFTCSFSNWSEDLKLNWYRLSPSNQTEKQAAFCNGYSQPVRDARFQIVQLPNGHDFHMNILDARRNDSGIYLCGAISLPPKAQIKESPGAELVVTERILETPTRYPRPSPKPEGQFQGL
As for B3, the binding result in [13] and in assay [14] was “binds” in each case.

These data come from patent US20190083612A1 (RINAT NEUROSCIENCE, published 2019).
